What was measured:
Test in all cases: pull-down; GST-fusion protein (20 pmol) immobilised on glutathione Sepharose 4B beads; incubated with 1 ml of 3.5 uM Nek7 protein for 2 hr; PD buffer (20 mM HEPES pH 7.5, 150 mM NaCl, 0.05% Tween 20); three 30 min washes at 4°C; anti-His6 immunoblot
Conditions in all cases: both partners purified
Nek7-N33D = target: T1, Nek7-N33D (human, UniProt Q8TDX7 1-302, N33D)
T1 construct: Nek7, human, point mutant of the full-length His6 construct (QuikChange); also called ND; source: bacterially expressed and purified; not shown: His6, C-terminal, kept

[1] = target: T2, Nek7-Δ20, N-terminal truncation of Nek7 starting at residue 20 (human, UniProt Q8TDX7 20-302)
T2 construct: Nek7, human, truncation starting at residue 20; source: bacterially expressed and purified

[2] = target: T3, Nek7, wild-type, full-length human protein with C-terminal His6 tag (human, UniProt Q8TDX7 1-302)
T3 construct: Nek7 (NIMA-related kinase 7), human, full-length (35 kDa), cloned into pET30; The His6 tag is uncleavable; also called Nek7-WT; WT; source: E. coli Codonplus RPIL, coexpressed with lambda phosphatase, purified (HisTRAP, then dialysis or gel filtration); not shown: His6, C-terminal, kept

Nek7-Y28A/L31A = target: T4, Nek7-Y28A/L31A (human, UniProt Q8TDX7 1-302, Y28A | L31A)
T4 construct: Nek7, human, double point mutant of the full-length His6 construct (QuikChange); also called YA/LA; source: bacterially expressed and purified; not shown: His6, C-terminal, kept

[3] = target: T5, Nek7-Δ30, N-terminal truncation of Nek7 starting at residue 30 (human, UniProt Q8TDX7 30-302)
T5 construct: Nek7, human, truncation starting at residue 30; source: bacterially expressed and purified

Measured: binding result

T5 sequence (Q8TDX7 30-302, stated change not applied): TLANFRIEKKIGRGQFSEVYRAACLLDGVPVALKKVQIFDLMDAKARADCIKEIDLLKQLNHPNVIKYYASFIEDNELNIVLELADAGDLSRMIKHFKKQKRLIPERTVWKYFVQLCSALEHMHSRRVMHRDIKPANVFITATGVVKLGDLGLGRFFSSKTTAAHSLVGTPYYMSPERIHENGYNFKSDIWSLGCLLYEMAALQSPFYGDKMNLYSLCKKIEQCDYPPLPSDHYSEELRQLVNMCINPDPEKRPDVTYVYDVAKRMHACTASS
T1 sequence (Q8TDX7 whole entry N33D): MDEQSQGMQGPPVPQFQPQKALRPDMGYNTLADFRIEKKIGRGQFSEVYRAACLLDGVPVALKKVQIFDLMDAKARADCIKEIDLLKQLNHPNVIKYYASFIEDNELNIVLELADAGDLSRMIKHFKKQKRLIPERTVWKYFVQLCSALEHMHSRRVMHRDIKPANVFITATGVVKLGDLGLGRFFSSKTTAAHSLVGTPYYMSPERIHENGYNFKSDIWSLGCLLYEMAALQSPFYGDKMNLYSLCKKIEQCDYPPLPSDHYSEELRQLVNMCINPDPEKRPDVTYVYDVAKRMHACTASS
T3 sequence (Q8TDX7 whole entry): as the sequence (Q8TDX7 whole entry N33D) above, with D33N counted along it
T4 sequence (Q8TDX7 whole entry Y28A/L31A): as the sequence (Q8TDX7 whole entry N33D) above, with Y28A, L31A, D33N counted along it
T2 sequence (Q8TDX7 20-302, stated change not applied): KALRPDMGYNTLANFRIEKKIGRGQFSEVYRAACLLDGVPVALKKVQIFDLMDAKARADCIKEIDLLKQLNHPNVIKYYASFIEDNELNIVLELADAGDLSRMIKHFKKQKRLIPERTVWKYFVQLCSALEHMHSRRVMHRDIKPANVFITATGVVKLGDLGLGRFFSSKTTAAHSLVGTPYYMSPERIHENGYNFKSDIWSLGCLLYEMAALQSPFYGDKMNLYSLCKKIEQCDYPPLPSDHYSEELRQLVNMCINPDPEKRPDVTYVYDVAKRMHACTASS

B1: GST-tagged C-terminal domain of human Nek9 (amino acids 706-960) (domain or fragment, UniProt Q8TD19 706-960, looked up)
chain: SLHHVPDLSCRGWHTILIVEKVLNSKTIRSNSSGLSIGTVFQSSSPGGGGGGGGGEEEDSQQESETPDPSGGFRGTMEADRGMEGLISPTEAMGNSNGASSSCPGWLRKELENAEFIPMPDSPSPLSAAFSESEKDTLPYEELQGLKVASEAPLEHKPQVEASSPRLNPAVTCAGKGTPLTPPACACSSLQVEVERLQGLVLKCLAEQQKLQQENLQIFTQLQKLNKKLEGGQQVGMHSKGTQTAKEEMEMDPKP
notes: Nek9, human, noncatalytic C-terminal domain (CTD), amino acids 706-960, cloned into pGEX-4T1; pGEX-4T1 normally places GST at the N-terminus; also called Nek9-CTD; GST-Nek9-CTD; source: E. coli Rosetta DE3, purified (glutathione Sepharose)
binds: Nek7-N33D | [1] | [2] | Nek7-Y28A/L31A | [3]
